Experimental data from the supplement of paper PMC10567573.

B1: KCNK9 (parent)
chain: CFITLTTIGFGDYVALQTKGALQK

Variants of: B1
Assay: protein stability index of a GFP-peptide fusion (GPS, HEK-293T) (PSI 1-6); higher = more stable
Conditions: c terminus: a fixed tail appended
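Also: lentivirally expressed fusions sorted by FACS into six bins by GFP to DsRed ratio, PSI derived from sequencing read proportions per bin multiplied by bin number.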

Row | Variant | protein stability index
1 | CFITLTTIGFGDYVALTTKGALQK [Q17T] | 2.08
2 | CFITLTTIGFGDYVALGTKGALQK [Q17G] | 2.38
3 | CFITLTTIGFGDYVALDTKGALQK [Q17D] | 2.17
4 | CFITLTTIGFGDYVALYTKGALQK [Q17Y] | 3.01
5 | CFITLTTIGFGDYVALNTKGALQK [Q17N] | 2.33
6 | CFITLTTIGFGDYVALFTKGALQK [Q17F] | 3.02
7 | CFITLTTIGFGDYVALETKGALQK [Q17E] | 2.76
8 | CFITLTTIGFGDYVALLTKGALQK [Q17L] | 2.23
9 | CFITLTTIGFGDYVALMTKGALQK [Q17M] | 2.23
10 | CFITLTTIGFGDYVALPTKGALQK [Q17P] | 3.82
11 | CFITLTTIGFGDYVALVTKGALQK [Q17V] | 3.42
12 | CFITLTTIGFGDYVALCTKGALQK [Q17C] | 3.88
13 | CFITLTTIGFGDYVALRTKGALQK [Q17R] | 2.83
14 | CFITLTTIGFGDYVALHTKGALQK [Q17H] | 3.57
15 | CFITLTTIGFGDYVALWTKGALQK [Q17W] | 2.58
16 | CFITLTTIGFGDYVALKTKGALQK [Q17K] | 2.82
17 | CFITLTTIGFGDYVALITKGALQK [Q17I] | 2.27
18 | CFITLTTIGFGDYVQLQTKGALQK [A15Q] | 2.3
19 | CFITLTTIGFGDYVVLQTKGALQK [A15V] | 2.68
20 | CFITLTTIGFGDYVYLQTKGALQK [A15Y] | 2.43
21 | CFITLTTIGFGDYVTLQTKGALQK [A15T] | 3.18
22 | CFITLTTIGFGDYVSLQTKGALQK [A15S] | 4.26
23 | CFITLTTIGFGDYVRLQTKGALQK [A15R] | 3.46
24 | CFITLTTIGFGDYVPLQTKGALQK [A15P] | 3.05

Row | Variant | protein stability index
25 | CFITLTTIGFGDYVWLQTKGALQK [A15W] | 3.31
26 | CFITLTTIGFGDYVALQTKDALQK [G20D] | 3.25
27 | CFITLTTIGFGDYVALQTKRALQK [G20R] | 3.65
28 | CFITLTTIGFGDYVALQTKIALQK [G20I] | 2.58
29 | CFITLTTIGFGDYVALQTKEALQK [G20E] | 3.59
30 | CFITLTTIGFGDYVALQTKFALQK [G20F] | 3.39
31 | CFITLTTIGFGDYVALQTKQALQK [G20Q] | 3.38
32 | CFITLTTIGFGDYVALQTKYALQK [G20Y] | 2.54
33 | CFITLTTIGFGDYVALQTKPALQK [G20P] | 2.55
34 | CFITLTTIGFGDYVALQTKAALQK [G20A] | 3.49
35 | CFITLTTIGFGDYVALQTKNALQK [G20N] | 3.17
36 | CFITLTTIGFGDYVALQTKSALQK [G20S] | 3.74
37 | CFITLTTIGFGDYVALQTKWALQK [G20W] | 3.87
38 | CFITLTTIGFGDYVALQTKCALQK [G20C] | 3.1
39 | CFITLTTIGFGDYVALQTKHALQK [G20H] | 2.6
40 | CFITLTTIGFGDYVALQTKTALQK [G20T] | 5.14
41 | CFITLTTIGFGDYVALQKKGALQK [T18K] | 1.58
42 | CFITLTTIGFGDYVALQAKGALQK [T18A] | 2.8
43 | CFITLTTIGFGDYVALQCKGALQK [T18C] | 3.43
44 | CFITLTTIGFGDYVALQHKGALQK [T18H] | 3
45 | CFITLTTIGFGDYVALQLKGALQK [T18L] | 3.51
46 | CFITLTTIGFGDYVALQRKGALQK [T18R] | 2.64
47 | CFITLTTIGFGDYVALQWKGALQK [T18W] | 3.1
48 | CFITLTTIGFGDYVALQDKGALQK [T18D] | 1.76

Row | Variant | protein stability index
49 | CFITLTTIGFGDYVALQNKGALQK [T18N] | 2.42
50 | CFITLTTIGFGDYVALQMKGALQK [T18M] | 2.49
51 | CFITLTTIGFGDYVALQPKGALQK [T18P] | 1.64
52 | CFITLTTIGFGDYVALQEKGALQK [T18E] | 2.28
53 | CFITLTTIGFGDYVALQFKGALQK [T18F] | 1.72
54 | CFITLTTIGFGDYVALQIKGALQK [T18I] | 2.12
55 | CFITLTTIGFGDYVALQSKGALQK [T18S] | 2.27
56 | CFITLTTIGFGDYVALQYKGALQK [T18Y] | 3.26
57 | CFITLTTIGFGDYVALQQKGALQK [T18Q] | 2.63
58 | CFITLTTIGFGDYVALQTDGALQK [K19D] | 3.22
59 | CFITLTTIGFGDYVALQTIGALQK [K19I] | 2.23
60 | CFITLTTIGFGDYVALQTGGALQK [K19G] | 1.24
61 | CFITLTTIGFGDYVALQTNGALQK [K19N] | 4.09
62 | CFITLTTIGFGDYVALQTFGALQK [K19F] | 1.95
63 | CFITLTTIGFGDYVALQTLGALQK [K19L] | 2.36
64 | CFITLTTIGFGDYVALQTTGALQK [K19T] | 4.24
65 | CFITLTTIGFGDYVALQTVGALQK [K19V] | 3.26
66 | CFITLTTIGFGDYVALQTHGALQK [K19H] | 1.98
67 | CFITLTTIGFGDYVALQTQGALQK [K19Q] | 2.16
68 | CFITLTTIGFGDYVALQTWGALQK [K19W] | 2.13
69 | CFITLTTIGFGDYVALQTSGALQK [K19S] | 2.11
70 | CFITLTTIGFGDYVALQTEGALQK [K19E] | 2.46
71 | CFITLTTIGFGDYVALQTYGALQK [K19Y] | 3.38
72 | CFITLTTIGFGDYVALQTAGALQK [K19A] | 3.43

Row | Variant | protein stability index
73 | CFITLTTIGFGDYVALQTRGALQK [K19R] | 3.19
74 | CFITLTTIGFGDYVALQTPGALQK [K19P] | 4.04
75 | CFITLTTIGFGDYVAYQTKGALQK [L16Y] | 2.44
76 | CFITLTTIGFGDYVAGQTKGALQK [L16G] | 1.89
77 | CFITLTTIGFGDYVATQTKGALQK [L16T] | 2.26
78 | CFITLTTIGFGDYVAFQTKGALQK [L16F] | 2.53
79 | CFITLTTIGFGDYVAEQTKGALQK [L16E] | 3.25
80 | CFITLTTIGFGDYVARQTKGALQK [L16R] | 2.74
81 | CFITLTTIGFGDYVAQQTKGALQK [L16Q] | 2.65
82 | CFITLTTIGFGDYVADQTKGALQK [L16D] | 2.23
83 | CFITLTTIGFGDYVAHQTKGALQK [L16H] | 2.43
84 | CFITLTTIGFGDYVAWQTKGALQK [L16W] | 2.27
85 | CFITLTTIGFGDYVACQTKGALQK [L16C] | 2.03
86 | CFITLTTIGFGDYVAVQTKGALQK [L16V] | 3.73
87 | CFITLTTIGFGDYVAAQTKGALQK [L16A] | 3.26
88 | CFITLTTIGFGDYVASQTKGALQK [L16S] | 1.75
89 | CFITLTTIGFGDYVAMQTKGALQK [L16M] | 1.56
90 | CFITLTTIGFGDYVANQTKGALQK [L16N] | 2.54
91 | CFITLTTIGFGDYVAIQTKGALQK [L16I] | 2.65
92 | CFITLTTIGFGDYVAPQTKGALQK [L16P] | 2.64
93 | CFITLTTIGFGDYVAKQTKGALQK [L16K] | 3.4
94 | CFITLTTIGFGDYVALQTKGCLQK [A21C] | 3.22
